Drawing on paper PMC10986502, this text covers Kd for one substance.

The series deals with His6-Fur (Riemerella anatipestifer CH-1). The series is described as follows: EMSA. To be noted: 5 mM Mn2+ (surrogate for Fe2+); EMSA: 2.5% glycerol, 0.05% NP-40, 5 mM MgCl2, 1 uM ZnSO4, 5 mM MnCl2; 1 ug DNA, 2-8 ug Fur in 20 uL; room temperature 20 min; pH and salt not given; 6% native ….

For rhuB promoter (194 bp), the Kd was found to be 4.3 nM.
